Reference: patent US5179196A, “Purification of proteins employing CTAP-III fusions” (SRI International, priority 1989, dated 1993)
Like-named read-outs stand apart in the source and are kept apart here.

B1: CTAP-III(Leu21): analog of CTAP-III in which the methionine at position 21 is replaced with leucine (protein, UniProt P02775 44-128, looked up, variant M21L)
Connective tissue-activating …: NLAKGKEESLDSDLYAELRCLCIKTTSGIHPKNIQSLEVIGKGTHCNQVEVIATLKDGRKICLDPDAPRIKKIVQKKLAGDESAD
modifications: Connective tissue-activating peptide III

Legend:
[1] = molecular target: T1, thrombin (Homo sapiens, UniProt P00734); settings: E. coli, cited from earlier work
[2] = Isoelectric point (pI); type: physicochemical
[3] = molecular target: T1, thrombin; test: Specific activity of recombinant hirudin (antithrombin activity), applicant's hirudin; type: biochemical
Description: There are a number of activity assays developed to determine the quality of hirudin preparations and for use in quantitating hirudin in various biochemical and pharmacological experiments. Two of these methods have been refined herein and may be used routinely and reproducibly. The first, a chromogenic substrate assay measures the inhibition by hirudin of thrombin's ability to hydrolyze small synthetic peptide substrates. The second, a fibrin-clotting assay, measures the kinetics of clot formation, using either human plasma or purified fibrinogen as the thrombin substrate.
In the chromogenic assay, antithrombin activity is achieved by measuring the inhibition of release of p-nitroaniline from the chromogenic substrate H-D-phenylalanyl-L-pipecolyl-L-arginine-p-nitroanilide dihydrochloride (S-2238, supplied by Kabivitrum) by thrombin in the presence of hirudin. Thrombin concentration is 2 nM (typically 0.12 NIH units/ml), and hirudin can be assayed reproducibly at an approximate concentration range of 0.3 to 1 nM, using 296 uM substrate in 50 mM Tris buffer, 100 mM NaCl, pH 7.8, and 0.1% polyethylene glycol-6000 (PEG). PEG is included to inhibit binding of thrombin to the plastic surface of the microplate or cuvette; for the same reason, reaction vessels are pretreated with 1% PEG-20,000 prior to assay.
Hirudin inhibits the thrombin-mediated conversion of fibrinogen into a fibrin clot. […]

[4] = system: B16/F10 cells (murine melanoma); test: Cell adhesion assay, tumor cells binding to peptide-coated wells; type: cell-based; settings: summary of Table 2
Description: One of the assays used to measure the activity of the laminin B1 peptide measures the binding of tumor cells containing the laminin receptor to the peptide immobilized on the surface of a culture tissue (Graf et al (1987) Cell 48:989-996). This assay is a convenient and sensitive method for routine measurement of laminin cell receptor binding and therefore a good indicator of laminin antagonist activity.
The laminin B1 -40 peptide, along with the previously described YIGSR and CDPGYIGSR peptides, were dissolved in phosphate-buffered saline (PBS) and were coated onto Falcon #3915 polystyrene 96-well plates at 37° C. for 60 min. The peptide solutions were removed, and the wells were washed twice with PBS. Non-specific cell binding was prevented by adding 200 ul 0.1% bovine serum albumin (BSA) (Sigma #4965) in PBS to the wells and incubating for 60 min at 37° C. The BSA was removed by washing twice with PBS. […] The optical density of the solutions was read on a Molecular Devices Corporation plate reader at a wavelength between 590 nm and 405 nm. Extrapolation of optical density to number of cells bound was done by comparison of readings to a standard curve obtained by incubating various numbers of cells in microtiter plate wells for 5 h (to allow firm attachment but no significant dividing), and washing and staining as described above.

Molecule | Sp. Act. ([1]; pMF1, lacUV5/tac, intracellular) | Sp. Act. ([1]; IU, international units, pHIR20 lam-PL, intracellular) [U/mg] | Sp. Act. ([1]; IU, international units, pHIR21 tac, periplasmic secretion) [U/mg] | pI (isoelectric point) [2] | Sp. Act. ([3]; AT (antithrombin units), E. coli, pNP6ΔRI-CRM/HIR, intracellular (Example 4)) | specific activity ([3]; purified hirudin HV-1 standard) | binding of metastatic tumor cells compared with YIGSR or CDPGYIGSR (in words) [4]
HV-1: hirudin variant 1, thrombin inhibitor of Hirudo medicinalis, produced from a synthetic DNA | 8,500 U/mg | 500 | 560 | 3.8 | 11,300 U/mg | greater than 10 antithrombin units per ug | –
Pro1 -Cys Pro Asp Gly Pro Asp Ser Gly Arg Gln Phe Ala Arg Ser Cys Tyr Gln Asp Pro Val Thr Leu Gln Leu Ala X Val Cys Asp Pro Gly Tyr Ile Gly Ser Arg Cys Asp Asp-Y [LamB1 -40] | – | – | – | 3.65 | – | – | binds metastatic tumor cells more effectively
B1 | – | – | – | approximately 7.8 | – | – | –
